Measurements taken from patent US20200207830A1, “TREM2 MUTANTS RESISTANT TO SHEDDASE CLEAVAGE” (NOVARTIS AG, priority 2017, published 2020).
No end group written: not given here.

T1: ADAM10 (Homo sapiens, UniProt O14672)
T1 sequence (O14672 214-748): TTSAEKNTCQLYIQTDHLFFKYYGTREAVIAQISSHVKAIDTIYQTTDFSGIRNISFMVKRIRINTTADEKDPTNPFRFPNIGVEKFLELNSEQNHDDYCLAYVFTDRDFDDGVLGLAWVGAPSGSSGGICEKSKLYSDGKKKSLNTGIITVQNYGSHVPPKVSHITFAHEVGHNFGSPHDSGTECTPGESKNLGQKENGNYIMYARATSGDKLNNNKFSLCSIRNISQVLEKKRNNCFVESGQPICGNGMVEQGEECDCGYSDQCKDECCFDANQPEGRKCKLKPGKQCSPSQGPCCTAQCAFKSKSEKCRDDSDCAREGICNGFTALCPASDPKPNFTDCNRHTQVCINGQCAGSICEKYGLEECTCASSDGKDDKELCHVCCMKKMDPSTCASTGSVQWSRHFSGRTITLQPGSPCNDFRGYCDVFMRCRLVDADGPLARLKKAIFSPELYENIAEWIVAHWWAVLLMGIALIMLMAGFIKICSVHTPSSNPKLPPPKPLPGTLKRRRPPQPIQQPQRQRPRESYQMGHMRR

B1: T2del11-16: human TREM2 6 amino acid deletion mutant of the stalk region; SEQ ID NO: 45 (protein)
chain: MEPLRLLILLFVTELSGAHNTTVFQGVAGQSLQVSCPYDSMKHWGRRKAWCRQLGEKGPCQRVVSTHNLWLLSFLRRWNGSTAITDDTLGGTLTITLRNLQPHDAGLYQCQSLHGSEADTLRKVLVEVLADPLDHRDAGDLWFPGESESFEDAHVEHSEGEIPFPPTSILLLLACIFLIKILAASALWAAAWHGQKPGTHPPSELDCGHDPGYQLQTLPGLRDT
B2: T2-WFR: human TREM2 mutant, amino acids 169-172 replaced with larger hydrophobic residues; SEQ ID NO: 47 (protein)
chain: MEPLRLLILLFVTELSGAHNTTVFQGVAGQSLQVSCPYDSMKHWGRRKAWCRQLGEKGPCQRVVSTHNLWLLSFLRRWNGSTAITDDTLGGTLTITLRNLQPHDAGLYQCQSLHGSEADTLRKVLVEVLADPLDHRDAGDLWFPGESESFEDAHVEHSISRSLLEGEIWFRWTSILLLLACIFLIKILAASALWAAAWHGQKPGTHPPSELDCGHDPGYQLQTLPGLRDT
B3: T2-YGG: human TREM2 mutant, amino acids 156-164 replaced with larger hydrophobic residues; SEQ ID NO: 46 (protein)
chain: MEPLRLLILLFVTELSGAHNTTVFQGVAGQSLQVSCPYDSMKHWGRRKAWCRQLGEKGPCQRVVSTHNLWLLSFLRRWNGSTAITDDTLGGTLTITLRNLQPHDAGLYQCQSLHGSEADTLRKVLVEVLADPLDHRDAGDLWFPGESESFEDAHVYGGWGGWGPEGEIPFPPTSILLLLACIFLIKILAASALWAAAWHGQKPGTHPPSELDCGHDPGYQLQTLPGLRDT
B4: TRUNCIII-159-174: human TREM2 mutant, deletion of the 16 amino acids 159-174 proximal to the transmembrane domain; SEQ ID NO: 44 (protein)
chain: MEPLRLLILLFVTELSGAHNTTVFQGVAGQSLQVSCPYDSMKHWGRRKAWCRQLGEKGPCQRVVSTHNLWLLSFLRRWNGSTAITDDTLGGTLTITLRNLQPHDAGLYQCQSLHGSEADTLRKVLVEVLADPLDHRDAGDLWFPGESESFEDAHVEHSILLLLACIFLIKILAASALWAAAWHGQKPGTHPPSELDCGHDPGYQLQTLPGLRDT

What follows are molecules tested against ADAM17 (Homo sapiens, UniProt P78536) (assay: In vitro cleavage of TREM2 stalk region peptides by ADAM17 (HPLC)). Conditions: neutral buffer, up to 48 hours, HPLC of parent peptide.
Chain of ADAM17 (P78536 215-824): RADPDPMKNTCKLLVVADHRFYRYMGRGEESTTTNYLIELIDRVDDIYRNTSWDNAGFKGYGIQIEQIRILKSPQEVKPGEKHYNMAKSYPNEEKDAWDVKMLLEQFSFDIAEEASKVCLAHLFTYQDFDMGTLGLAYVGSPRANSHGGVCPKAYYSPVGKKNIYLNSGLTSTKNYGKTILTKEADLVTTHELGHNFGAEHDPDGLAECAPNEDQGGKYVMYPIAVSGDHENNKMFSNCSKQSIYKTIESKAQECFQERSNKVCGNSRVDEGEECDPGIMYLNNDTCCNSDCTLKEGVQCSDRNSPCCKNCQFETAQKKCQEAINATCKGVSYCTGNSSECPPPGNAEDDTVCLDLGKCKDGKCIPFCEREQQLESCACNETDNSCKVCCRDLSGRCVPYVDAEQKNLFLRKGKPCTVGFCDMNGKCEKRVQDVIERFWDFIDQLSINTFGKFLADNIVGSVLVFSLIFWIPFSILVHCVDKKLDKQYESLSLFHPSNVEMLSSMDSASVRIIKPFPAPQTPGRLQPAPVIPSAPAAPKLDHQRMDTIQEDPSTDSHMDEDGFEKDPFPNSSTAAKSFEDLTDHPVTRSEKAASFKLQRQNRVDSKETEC
Format: biochemical
Text: FIGS. 5A-5E show ADAM17 cleaves TREM2 stalk region peptides in vitro at H157-S158. […] All peptides were obtained with an N-terminal 7-methoxycoumarin (Mca) fluorescent tag […]. Underlined amino acids indicates main sheddase cleavage site. AA112-171: SEQ ID NO: 24; Peptide 1: SEQ ID NO: 25; Peptide 2: SEQ ID NO: 26; Peptide 3: SEQ ID NO: 27; Peptide la: SEQ ID NO: 28; Peptide 2a: SEQ ID NO: 29; Peptide 4: SEQ ID NO: 30; Peptide 5: SEQ ID NO: 31; Peptide 6: SEQ ID NO: 32. […] FIG. 5C discloses SEQ ID NOS 83, 51 and 84, respectively, in order of appearance.
(§1) In order to identify the cleavage site of ADAM10/ADAM17 within the stalk region of TREM2, in vitro cleavage patterns of stalk region-derived peptides were investigated and confirmed the cleavage site by determination of the C-terminus of shed soluble TREM2 from cell culture supernatants. A series of peptides covering the stalk region were designed for in vitro investigation of ADAM10/ADAM17 cleavage (FIG. 5A). All peptides were obtained with an N-terminal 7-methoxycoumarin (Mca) fluorescent tag. Peptides 1-3, 1a and 2a were incubated with ADAM17 in neutral buffer for up to 48 hours, and reaction was followed by HPLC analysis of aliquots withdrawn at different time points.
(§2) HPLC-MS analysis of the reaction mixture of peptide3/ADAM17 identified one major product, SISRSLLEGEIPFP-NH2(SEQ ID NO: 51), together with 2 minor cleavage products (FIGS. 5B-5C). […] At these time points there was essentially no substrate left. Therefore, it can be concluded that the minor cleavage products originate from secondary ADAM17 cleavage of the main product.
“Peptide 4: TREM2 stalk peptide, H-SI cleavage site replaced with IPP; SEQ ID NO: 30 (DAHVEIPPSRSLLEGEIPFP)” was tested, and the “Cleavage by ADAM17” value was “resistant to in vitro cleavage”. “1a: TREM2 stalk region derived synthetic peptide with 7-methoxycoumarin (Mca) tag; SEQ ID NO: 28 (VLVEVLADPLDHRD; also: 7-methoxycoumarin (Mca) tag, position not given here) [Peptide 1a]” was tested, and the “Cleavage by ADAM17” value was “only very little or no reduction of the parent peptide”. For “Peptide 1: TREM2 stalk region derived synthetic peptide with 7-methoxycoumarin (Mca) tag; SEQ ID NO: 25 (SLHGSEADTLRKVLVEVLAD; also: 7-methoxycoumarin (Mca) tag, position not given here)”, the “Cleavage by ADAM17” value was “only very little or no reduction of the parent peptide”. In the case of “Peptide 2a: TREM2 stalk region derived synthetic peptide with 7-methoxycoumarin (Mca) tag; SEQ ID NO: 29 (ESESFEDAHVEH; also: 7-methoxycoumarin (Mca) tag, position not given here)”, the “Cleavage by ADAM17” value is reported as “only very little or no reduction of the parent peptide”. With “Peptide 2: TREM2 stalk region derived synthetic peptide with 7-methoxycoumarin (Mca) tag; SEQ ID NO: 26 (PLDHRDAGDLWFPGESESFE; also: 7-methoxycoumarin (Mca) tag, position not given here)” the “Cleavage by ADAM17” value was “only very little or no reduction of the parent peptide”.

These molecules were tested against T1, ADAM10 (assay: In vitro cleavage of TREM2 stalk region peptides by ADAM10). Conditions: data not shown.
Format: biochemical
Text: as §1, §2
Recent literature gave insight into ADAM10 and ADAM17 preferences for the cleavage of peptides and proteins (Caescu et al., Biochem J 424, 79-88, 2009; Tucher et al., J Proteome Res 13, 2205-2214, 2014). […] After searching for the least preferred amino acids in substrates of ADAM10 and 17, isoleucine was identified as never occurring in P1 of ADAM substrates, and a very low preference for aspartate or proline in P1′ and in P2′. […] In these peptides the H-SI cleavage site was replaced with IPP, IPD, and IDP, respectively.
In the case of “Peptide 4: TREM2 stalk peptide, H-SI cleavage site replaced with IPP; SEQ ID NO: 30 (DAHVEIPPSRSLLEGEIPFP)”, the “Cleavage by ADAM10” value is reported as “cleavage resistant”.

These molecules were tested on HEK293-FT cells (assay: FACS analysis of cell surface expression of TREM2 WT and mutants in HEK293-FT cells with or without PMA). Conditions: co-transfected with hDAP12, 48 h, 30 min 50 ng/ml PMA, ratio of 1 = complete inhibition of shedding, FIG. 4B.
Format: cell-based
Text: FIGS. 4A-4D show the amino acid stretch in the membrane proximal part of the TREM2 stalk region are important for shedding. […] Amino acid numbering according to iProt Q9NZC2. TM: transmembrane region. Gaps indicate deleted amino acids within the respective mutant. Exchanged amino acids in bold. Underlined amino acids indicates main sheddase cleavage site for generation of the C-terminus of TREM2 ectodomain. […] FIG. 4B is a bar graph showing FACS analysis of TREM2 WT and mutants transiently expressed in HEK293-FT cells. Cells were treated 48 hours after transfection with 50 ng/ml PMA or 0.05% DMSO. Cells were detached, labelled with AF1828 antiserum and analyzed by flow cytometry. Data are plotted as the ratio of untreated over PMA treatment for each mutant as mean±S.E. (n=3). Statistical differences to WT were calculated by Anova with Dunnett's multiple comparison test. *P<0.01. TREM2-double mutant was stably expressed in BWZ-lacZ-mDAP12 cells. Cells were seeded on an activating monoclonal antibody or isotype control and reporter gene activity assessed after 16 h. Data are plotted as the ratio of RGA for activating/control Ab as mean±S.E. (n=3). FIG. 4D is a bar graph showing replacement of the three amino acids at the sheddase cleavage site strongly increases TREM2 cell surface expression. FACS analysis of TREM2 WT and mutants transiently expressed in HEK293-FT cells. Cells were treated 48 h after transfection with 50 ng/ml PMA or 0.05% DMSO. Cells were detached, labelled with AF1828 antiserum and analyzed by flow cytometry. Data are plotted as the ratio of untreated over PMA treatment for each mutant as mean±S.E. (n=3). Statistical differences were calculated by Anova with Dunnett's multiple comparison test. *P<0.01.
Human TREM2 mutants were generated using the QuikChange Site-directed Mutagenesis Kit (Stratagene) and confirmed by sequence analysis. Transfections of complementary DNA (cDNA) constructs were carried out in a 1:1 ratio of hDAP12 and TREM2 in HEK-FT cells using Lipofectamine LTX reagent (Thermofischer) according to the manufacturer's recommendations. 48 h after transfection cells were treated for 30 min with 50 ng/ml PMA or 0.05% DMSO and detached with a cell detachment solution Accutase (Sigma) and stained with goat anti human TREM2 antibody AF1828 (R&D Systems) or isotype control followed by incubation with the secondary Alexa Fluor 488 conjugated antibody (Molecular Probes). Acquisition was performed using a BD FACSCanto II (BD biosciences).
Wild-type (WT) TREM2 or TREM2 mutants were transfected together with hDAP12 into HEK-FT cells. 48 h later cells were treated for 30 min with PMA to activate ADAMs at cell surface (see Sommer, Nature Communications 7, 11523, 2016). TREM2 cell surface expression was assessed by FACS, and results are presented as expression ratio of untreated over PMA treatment (FIG. 4B). The evaluation of each construct in the presence and absence of PMA treatment overcomes the possibility that some constructs might display different binding properties for the antiserum and allows direct comparison of changes in TREM2 cell surface expression after activation of sheddases. A ratio of 1 indicates complete inhibition of shedding. […] Next four shorter deletion mutants were generated encompassing this area, each 6 amino acids long (TRUNC1, T2del3-8, T2del6-11 and T2del11-16).
In the case of “T2del6-11: human TREM2 6 amino acid deletion mutant of the stalk region; SEQ ID NO: 16 (LWFPGESESFEDAHVEHSISRSLFPPTSILLLLAC)”, the “PMA induced TREM2 shedding (TREM2 cell surface expression ratio of untreated over PMA treatment)” value is reported as “no or very little effect on shedding”. With “TRUNC1: human TREM2 6 amino acid deletion mutant of the stalk region; SEQ ID NO: 14 (LWFPGESESFEDAHVEHSISRSLLEGEIILLLLAC)” the “PMA induced TREM2 shedding (TREM2 cell surface expression ratio of untreated over PMA treatment)” value was “no or very little effect on shedding”. For “T2del3-8: human TREM2 6 amino acid deletion mutant of the stalk region; SEQ ID NO: 15 (LWFPGESESFEDAHVEHSISRSLLEGTSILLLLAC)”, the “PMA induced TREM2 shedding (TREM2 cell surface expression ratio of untreated over PMA treatment)” value was “no or very little effect on shedding”. In the case of B1, the “PMA induced TREM2 shedding (TREM2 cell surface expression ratio of untreated over PMA treatment)” value is reported as “reduced PMA induced shedding”. With B2 the “PMA induced TREM2 shedding (TREM2 cell surface expression ratio of untreated over PMA treatment)” value was “more efficacious”. For B3, the “PMA induced TREM2 shedding (TREM2 cell surface expression ratio of untreated over PMA treatment)” value was “trend for reduction of TREM2 shedding”. In the case of B4, the “PMA induced TREM2 shedding (TREM2 cell surface expression ratio of untreated over PMA treatment)” value is reported as “maximally reduces TREM2 shedding”.
